Laboratory results reported in patent publication US20260007772A1.

Molecular target: Neutrophil elastase enzyme (Neutrophil Elastase Colorimetric Drug Discovery Kit, Enzo Life Sciences) (UniProt P08246)
Assay: cell-based or functional assay

Sequence of UniProt P08246 (P08246 30-247 limits assumed): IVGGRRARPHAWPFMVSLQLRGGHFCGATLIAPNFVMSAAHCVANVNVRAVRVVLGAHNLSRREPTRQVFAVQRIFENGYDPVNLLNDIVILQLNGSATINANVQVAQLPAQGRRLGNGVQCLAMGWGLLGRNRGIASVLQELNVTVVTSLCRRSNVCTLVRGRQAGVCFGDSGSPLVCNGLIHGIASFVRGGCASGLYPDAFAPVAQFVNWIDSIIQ

Substance “endogenous A1AT of wild type mice (from UniProt O89094 168-257)” has an Average % Inhibition (Percent inhibition of Neutrophil Elastase in purified serum samples) of 95.6%.
